Measurements taken from the RNAGym collection of RNA variant scans (doi:10.1021/acssynbio.7b00057).

B1: Pistol ribozyme (parent)
chain: GGGUCGUUGUUCCAUAAUCGCGUGGAUAUGGCACGCAAGUUUCUACCGGGCACCGUAAAUGUCCGACUGGAGCCGUUCGGGCGGCUAUAAACAGACCUCAGGCCCGAAGCGUGGCGGCACCUGCCGCCGGUGGUAAAAAAGAUCGGAAGAGCACACGUCU

Variants of: B1
Experiment: aptazyme ON/OFF ratio, guanine; higher = stronger switching; co-transcriptional cleavage with and without guanine

Row | Variant | aptazyme ON/OFF ratio
1 | GGGUCGUUUUGUCAUAAUCGCGUGGAUAUGGCACGCAAGUUUCUACCGGGCACCGUAAAUGUCCGACUGGAGCCGUUCGGGCGGCUAUAAACAGACCUCAGGCCCGAAGCGUGGCGGCACCUGCCGCCGGUGGUAAAAAAGAUCGGAAGAGCACACGUCU [G9U U11G C12U] | 1.99
2 | GGGUCGUUUUGGCAUAAUCGCGUGGAUAUGGCACGCAAGUUUCUACCGGGCACCGUAAAUGUCCGACUGGAGCCGUUCGGGCGGCUAUAAACAGACCUCAGGCCCGAAGCGUGGCGGCACCUGCCGCCGGUGGUAAAAAAGAUCGGAAGAGCACACGUCU [G9U U11G C12G] | 2.82
3 | GGGUCGUUUUGACAUAAUCGCGUGGAUAUGGCACGCAAGUUUCUACCGGGCACCGUAAAUGUCCGACUGGAGCCGUUCGGGCGGCUAUAAACAGACCUCAGGCCCGAAGCGUGGCGGCACCUGCCGCCGGUGGUAAAAAAGAUCGGAAGAGCACACGUCU [G9U U11G C12A] | 2.21
4 | GGGUCGUUUUGAUAUAAUCGCGUGGAUAUGGCACGCAAGUUUCUACCGGGCACCGUAAAUGUCCGACUGGAGCCGUUCGGGCGGCUAUAAACAGACCUCAGGCCCGAAGCGUGGCGGCACCUGCCGCCGGUGGUAAAAAAGAUCGGAAGAGCACACGUCU [G9U U11G C12A C13U] | 1.36
5 | GGGUCGUUUUGAAAUAAUCGCGUGGAUAUGGCACGCAAGUUUCUACCGGGCACCGUAAAUGUCCGACUGGAGCCGUUCGGGCGGCUAUAAACAGACCUCAGGCCCGAAGCGUGGCGGCACCUGCCGCCGGUGGUAAAAAAGAUCGGAAGAGCACACGUCU [G9U U11G C12A C13A] | 1.31
6 | GGGUCGUUUUGAGAUAAUCGCGUGGAUAUGGCACGCAAGUUUCUACCGGGCACCGUAAAUGUCCGACUGGAGCCGUUCGGGCGGCUAUAAACAGACCUCAGGCCCGAAGCGUGGCGGCACCUGCCGCCGGUGGUAAAAAAGAUCGGAAGAGCACACGUCU [G9U U11G C12A C13G] | 1.32
7 | GGGUCGUUGAUUUAUAAUCGCGUGGAUAUGGCACGCAAGUUUCUACCGGGCACCGUAAAUGUCCGACUGGAGCCGUUCGGGCGGCUAUAAACAGACCUCAGGCCCGAAGCGUGGCGGCACCUGCCGCCGGUGGUAAAAAAGAUCGGAAGAGCACACGUCU [U10A C12U C13U] | 1.54
8 | GGGUCGUUGAUUGAUAAUCGCGUGGAUAUGGCACGCAAGUUUCUACCGGGCACCGUAAAUGUCCGACUGGAGCCGUUCGGGCGGCUAUAAACAGACCUCAGGCCCGAAGCGUGGCGGCACCUGCCGCCGGUGGUAAAAAAGAUCGGAAGAGCACACGUCU [U10A C12U C13G] | 1.33
9 | GGGUCGUUGAUUAAUAAUCGCGUGGAUAUGGCACGCAAGUUUCUACCGGGCACCGUAAAUGUCCGACUGGAGCCGUUCGGGCGGCUAUAAACAGACCUCAGGCCCGAAGCGUGGCGGCACCUGCCGCCGGUGGUAAAAAAGAUCGGAAGAGCACACGUCU [U10A C12U C13A] | 1.3
10 | GGGUCGUUUUCUAAUAAUCGCGUGGAUAUGGCACGCAAGUUUCUACCGGGCACCGUAAAUGUCCGACUGGAGCCGUUCGGGCGGCUAUAAACAGACCUCAGGCCCGAAGCGUGGCGGCACCUGCCGCCGGUGGUAAAAAAGAUCGGAAGAGCACACGUCU [G9U U11C C12U C13A] | 1.51
11 | GGGUCGUUUUCUUAUAAUCGCGUGGAUAUGGCACGCAAGUUUCUACCGGGCACCGUAAAUGUCCGACUGGAGCCGUUCGGGCGGCUAUAAACAGACCUCAGGCCCGAAGCGUGGCGGCACCUGCCGCCGGUGGUAAAAAAGAUCGGAAGAGCACACGUCU [G9U U11C C12U C13U] | 1.34
12 | GGGUCGUUUUCUGAUAAUCGCGUGGAUAUGGCACGCAAGUUUCUACCGGGCACCGUAAAUGUCCGACUGGAGCCGUUCGGGCGGCUAUAAACAGACCUCAGGCCCGAAGCGUGGCGGCACCUGCCGCCGGUGGUAAAAAAGAUCGGAAGAGCACACGUCU [G9U U11C C12U C13G] | 1.23
13 | GGGUCGUUUUCUCAUAAUCGCGUGGAUAUGGCACGCAAGUUUCUACCGGGCACCGUAAAUGUCCGACUGGAGCCGUUCGGGCGGCUAUAAACAGACCUCAGGCCCGAAGCGUGGCGGCACCUGCCGCCGGUGGUAAAAAAGAUCGGAAGAGCACACGUCU [G9U U11C C12U] | 2.4
14 | GGGUCGUUUUGUAAUAAUCGCGUGGAUAUGGCACGCAAGUUUCUACCGGGCACCGUAAAUGUCCGACUGGAGCCGUUCGGGCGGCUAUAAACAGACCUCAGGCCCGAAGCGUGGCGGCACCUGCCGCCGGUGGUAAAAAAGAUCGGAAGAGCACACGUCU [G9U U11G C12U C13A] | 1.43
15 | GGGUCGUUUUGUUAUAAUCGCGUGGAUAUGGCACGCAAGUUUCUACCGGGCACCGUAAAUGUCCGACUGGAGCCGUUCGGGCGGCUAUAAACAGACCUCAGGCCCGAAGCGUGGCGGCACCUGCCGCCGGUGGUAAAAAAGAUCGGAAGAGCACACGUCU [G9U U11G C12U C13U] | 1.29
16 | GGGUCGUUUUGUGAUAAUCGCGUGGAUAUGGCACGCAAGUUUCUACCGGGCACCGUAAAUGUCCGACUGGAGCCGUUCGGGCGGCUAUAAACAGACCUCAGGCCCGAAGCGUGGCGGCACCUGCCGCCGGUGGUAAAAAAGAUCGGAAGAGCACACGUCU [G9U U11G C12U C13G] | 1.43
17 | GGGUCGUUUUGCCAUAAUCGCGUGGAUAUGGCACGCAAGUUUCUACCGGGCACCGUAAAUGUCCGACUGGAGCCGUUCGGGCGGCUAUAAACAGACCUCAGGCCCGAAGCGUGGCGGCACCUGCCGCCGGUGGUAAAAAAGAUCGGAAGAGCACACGUCU [G9U U11G] | 1.74
18 | GGGUCGUUUUCCGAUAAUCGCGUGGAUAUGGCACGCAAGUUUCUACCGGGCACCGUAAAUGUCCGACUGGAGCCGUUCGGGCGGCUAUAAACAGACCUCAGGCCCGAAGCGUGGCGGCACCUGCCGCCGGUGGUAAAAAAGAUCGGAAGAGCACACGUCU [G9U U11C C13G] | 1.06

Row | Variant | aptazyme ON/OFF ratio
19 | GGGUCGUUUUCCAAUAAUCGCGUGGAUAUGGCACGCAAGUUUCUACCGGGCACCGUAAAUGUCCGACUGGAGCCGUUCGGGCGGCUAUAAACAGACCUCAGGCCCGAAGCGUGGCGGCACCUGCCGCCGGUGGUAAAAAAGAUCGGAAGAGCACACGUCU [G9U U11C C13A] | 1.22
20 | GGGUCGUUUUCCUAUAAUCGCGUGGAUAUGGCACGCAAGUUUCUACCGGGCACCGUAAAUGUCCGACUGGAGCCGUUCGGGCGGCUAUAAACAGACCUCAGGCCCGAAGCGUGGCGGCACCUGCCGCCGGUGGUAAAAAAGAUCGGAAGAGCACACGUCU [G9U U11C C13U] | 1.37
21 | GGGUCGUUUUGCAAUAAUCGCGUGGAUAUGGCACGCAAGUUUCUACCGGGCACCGUAAAUGUCCGACUGGAGCCGUUCGGGCGGCUAUAAACAGACCUCAGGCCCGAAGCGUGGCGGCACCUGCCGCCGGUGGUAAAAAAGAUCGGAAGAGCACACGUCU [G9U U11G C13A] | 1.37
22 | GGGUCGUUUUGCGAUAAUCGCGUGGAUAUGGCACGCAAGUUUCUACCGGGCACCGUAAAUGUCCGACUGGAGCCGUUCGGGCGGCUAUAAACAGACCUCAGGCCCGAAGCGUGGCGGCACCUGCCGCCGGUGGUAAAAAAGAUCGGAAGAGCACACGUCU [G9U U11G C13G] | 1.21
23 | GGGUCGUUUUGCUAUAAUCGCGUGGAUAUGGCACGCAAGUUUCUACCGGGCACCGUAAAUGUCCGACUGGAGCCGUUCGGGCGGCUAUAAACAGACCUCAGGCCCGAAGCGUGGCGGCACCUGCCGCCGGUGGUAAAAAAGAUCGGAAGAGCACACGUCU [G9U U11G C13U] | 1.7
24 | GGGUCGUUGAUAAAUAAUCGCGUGGAUAUGGCACGCAAGUUUCUACCGGGCACCGUAAAUGUCCGACUGGAGCCGUUCGGGCGGCUAUAAACAGACCUCAGGCCCGAAGCGUGGCGGCACCUGCCGCCGGUGGUAAAAAAGAUCGGAAGAGCACACGUCU [U10A C12A C13A] | 1.22
25 | GGGUCGUUGAUAUAUAAUCGCGUGGAUAUGGCACGCAAGUUUCUACCGGGCACCGUAAAUGUCCGACUGGAGCCGUUCGGGCGGCUAUAAACAGACCUCAGGCCCGAAGCGUGGCGGCACCUGCCGCCGGUGGUAAAAAAGAUCGGAAGAGCACACGUCU [U10A C12A C13U] | 1.31
26 | GGGUCGUUGAUAGAUAAUCGCGUGGAUAUGGCACGCAAGUUUCUACCGGGCACCGUAAAUGUCCGACUGGAGCCGUUCGGGCGGCUAUAAACAGACCUCAGGCCCGAAGCGUGGCGGCACCUGCCGCCGGUGGUAAAAAAGAUCGGAAGAGCACACGUCU [U10A C12A C13G] | 1.19
27 | GGGUCGUUGAUGUAUAAUCGCGUGGAUAUGGCACGCAAGUUUCUACCGGGCACCGUAAAUGUCCGACUGGAGCCGUUCGGGCGGCUAUAAACAGACCUCAGGCCCGAAGCGUGGCGGCACCUGCCGCCGGUGGUAAAAAAGAUCGGAAGAGCACACGUCU [U10A C12G C13U] | 1.47
28 | GGGUCGUUGAUGGAUAAUCGCGUGGAUAUGGCACGCAAGUUUCUACCGGGCACCGUAAAUGUCCGACUGGAGCCGUUCGGGCGGCUAUAAACAGACCUCAGGCCCGAAGCGUGGCGGCACCUGCCGCCGGUGGUAAAAAAGAUCGGAAGAGCACACGUCU [U10A C12G C13G] | 1.17
29 | GGGUCGUUGAUGAAUAAUCGCGUGGAUAUGGCACGCAAGUUUCUACCGGGCACCGUAAAUGUCCGACUGGAGCCGUUCGGGCGGCUAUAAACAGACCUCAGGCCCGAAGCGUGGCGGCACCUGCCGCCGGUGGUAAAAAAGAUCGGAAGAGCACACGUCU [U10A C12G C13A] | 1.4
30 | GGGUCGUUGAUGCAUAAUCGCGUGGAUAUGGCACGCAAGUUUCUACCGGGCACCGUAAAUGUCCGACUGGAGCCGUUCGGGCGGCUAUAAACAGACCUCAGGCCCGAAGCGUGGCGGCACCUGCCGCCGGUGGUAAAAAAGAUCGGAAGAGCACACGUCU [U10A C12G] | 1.65
31 | GGGUCGUUGAUACAUAAUCGCGUGGAUAUGGCACGCAAGUUUCUACCGGGCACCGUAAAUGUCCGACUGGAGCCGUUCGGGCGGCUAUAAACAGACCUCAGGCCCGAAGCGUGGCGGCACCUGCCGCCGGUGGUAAAAAAGAUCGGAAGAGCACACGUCU [U10A C12A] | 1.62
32 | GGGUCGUUGAUUCAUAAUCGCGUGGAUAUGGCACGCAAGUUUCUACCGGGCACCGUAAAUGUCCGACUGGAGCCGUUCGGGCGGCUAUAAACAGACCUCAGGCCCGAAGCGUGGCGGCACCUGCCGCCGGUGGUAAAAAAGAUCGGAAGAGCACACGUCU [U10A C12U] | 1.16
33 | GGGUCGUUGAUCCAUAAUCGCGUGGAUAUGGCACGCAAGUUUCUACCGGGCACCGUAAAUGUCCGACUGGAGCCGUUCGGGCGGCUAUAAACAGACCUCAGGCCCGAAGCGUGGCGGCACCUGCCGCCGGUGGUAAAAAAGAUCGGAAGAGCACACGUCU [U10A] | 1.15
34 | GGGUCGUUUUGGGAUAAUCGCGUGGAUAUGGCACGCAAGUUUCUACCGGGCACCGUAAAUGUCCGACUGGAGCCGUUCGGGCGGCUAUAAACAGACCUCAGGCCCGAAGCGUGGCGGCACCUGCCGCCGGUGGUAAAAAAGAUCGGAAGAGCACACGUCU [G9U U11G C12G C13G] | 1.36
35 | GGGUCGUUUUGGUAUAAUCGCGUGGAUAUGGCACGCAAGUUUCUACCGGGCACCGUAAAUGUCCGACUGGAGCCGUUCGGGCGGCUAUAAACAGACCUCAGGCCCGAAGCGUGGCGGCACCUGCCGCCGGUGGUAAAAAAGAUCGGAAGAGCACACGUCU [G9U U11G C12G C13U] | 1.21
36 | GGGUCGUUUUGGAAUAAUCGCGUGGAUAUGGCACGCAAGUUUCUACCGGGCACCGUAAAUGUCCGACUGGAGCCGUUCGGGCGGCUAUAAACAGACCUCAGGCCCGAAGCGUGGCGGCACCUGCCGCCGGUGGUAAAAAAGAUCGGAAGAGCACACGUCU [G9U U11G C12G C13A] | 1.49
